Bridges are numbered along the chain shown (N, C = ends). Where no end group is shown, it is not given here. [ ]: non-standard residue; d: D form. hArg = N=C(N)NCCCC[C@H](N)C(=O)O; staple K20 = not defined here; staple K4 = not defined here; staple K5 = not defined here; staple K6 = not defined here; staple K7 = not defined here; staple K8 = not defined here; staple K9 = not defined here; Nle = CCCC[C@H](N)C(=O)O; L12 = not defined here; L1 = not defined here; L3 = not defined here; L4 = not defined here; L5 = not defined here; L6 = not defined here; L7 = not defined here; L8 = not defined here; L9 = not defined here; Aib = CC(C)(N)C(=O)O
Legend:
Assay in all cases: cell-based or functional assay
human GCGR = human GCGR (human, UniProt P47871 26-477)
human GIPR = biological target: T1, human GIPR (human, UniProt P48546 22-466)
T1 sequence (looked up): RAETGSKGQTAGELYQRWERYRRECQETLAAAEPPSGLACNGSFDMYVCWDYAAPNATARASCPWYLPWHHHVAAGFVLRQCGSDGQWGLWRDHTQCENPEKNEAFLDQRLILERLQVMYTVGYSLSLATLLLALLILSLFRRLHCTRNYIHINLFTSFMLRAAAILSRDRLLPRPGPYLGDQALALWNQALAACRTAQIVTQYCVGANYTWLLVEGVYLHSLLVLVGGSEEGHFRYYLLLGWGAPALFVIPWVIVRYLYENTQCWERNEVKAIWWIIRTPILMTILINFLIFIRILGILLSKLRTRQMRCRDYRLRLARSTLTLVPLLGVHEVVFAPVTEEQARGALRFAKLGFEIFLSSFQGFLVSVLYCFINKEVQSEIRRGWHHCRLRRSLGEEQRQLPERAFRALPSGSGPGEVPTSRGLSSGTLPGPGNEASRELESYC

human GLP-1R = human GLP-1R (human, UniProt P43220 24-463)
human NPFF2R = human NPFF2R (human, UniProt Q9Y5X5 1-522)
GPR10 [1] = biological target: T2, GPR10 (UniProt P49683 1-370, limits assumed)
T2 sequence (looked up): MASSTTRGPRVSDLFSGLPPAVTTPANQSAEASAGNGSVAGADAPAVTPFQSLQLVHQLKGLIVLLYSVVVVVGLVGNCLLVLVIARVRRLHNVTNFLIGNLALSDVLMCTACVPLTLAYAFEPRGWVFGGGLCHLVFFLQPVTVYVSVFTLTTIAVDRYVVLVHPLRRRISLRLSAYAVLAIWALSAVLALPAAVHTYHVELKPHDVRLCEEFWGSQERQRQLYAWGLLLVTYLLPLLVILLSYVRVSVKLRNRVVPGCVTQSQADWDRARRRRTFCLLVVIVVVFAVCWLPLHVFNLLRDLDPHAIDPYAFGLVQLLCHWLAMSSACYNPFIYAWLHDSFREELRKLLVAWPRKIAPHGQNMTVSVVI

GPR10 [2] = biological target: T2, GPR10; remark: listed apart in the source

human NPFF2R, sequence (Q9Y5X5 whole entry): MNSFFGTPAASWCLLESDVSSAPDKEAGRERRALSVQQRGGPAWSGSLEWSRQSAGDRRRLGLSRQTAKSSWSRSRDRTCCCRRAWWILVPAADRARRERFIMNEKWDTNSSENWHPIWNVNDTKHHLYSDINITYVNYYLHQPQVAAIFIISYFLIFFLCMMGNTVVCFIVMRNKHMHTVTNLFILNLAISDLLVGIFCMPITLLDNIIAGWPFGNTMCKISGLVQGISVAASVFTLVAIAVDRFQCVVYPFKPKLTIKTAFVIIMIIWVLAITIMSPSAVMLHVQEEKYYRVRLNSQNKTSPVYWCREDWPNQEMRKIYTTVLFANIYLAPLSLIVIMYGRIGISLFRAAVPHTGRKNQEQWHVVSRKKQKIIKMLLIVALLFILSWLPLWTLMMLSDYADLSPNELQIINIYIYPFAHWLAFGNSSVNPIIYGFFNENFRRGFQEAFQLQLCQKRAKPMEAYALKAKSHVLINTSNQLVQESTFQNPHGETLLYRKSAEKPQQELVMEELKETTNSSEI
human GCGR, sequence (P47871 26-477): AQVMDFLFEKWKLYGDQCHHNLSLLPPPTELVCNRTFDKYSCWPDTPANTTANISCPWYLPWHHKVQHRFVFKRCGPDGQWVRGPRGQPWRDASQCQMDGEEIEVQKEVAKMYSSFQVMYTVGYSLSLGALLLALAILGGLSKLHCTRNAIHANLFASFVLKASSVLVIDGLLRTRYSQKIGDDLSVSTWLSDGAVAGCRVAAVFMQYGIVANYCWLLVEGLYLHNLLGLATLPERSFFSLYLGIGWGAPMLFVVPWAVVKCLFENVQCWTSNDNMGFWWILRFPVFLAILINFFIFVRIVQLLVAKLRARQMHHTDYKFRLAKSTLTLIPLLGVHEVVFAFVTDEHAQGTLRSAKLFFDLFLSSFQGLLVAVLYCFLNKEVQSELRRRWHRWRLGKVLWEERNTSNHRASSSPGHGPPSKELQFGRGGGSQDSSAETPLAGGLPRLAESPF

B1: Conjugate 126 (peptide)
peptide: HXQGTFTSDYSKYLDSKKAKEFVKWLLNXGPSSGAPPPS
modifications: not fully specified; staple K4 on Lys 17, 24; Aib 2, 29
- EC50 cAMP 0% FBS (human GCGR): 0.092 nM

B2: Conjugate 144 (peptide)
peptide: Y[Aib]EGTFTSDYSIYKDKQAA[Aib]KFVNWLLAGGPSSGAPPPS
modifications: linker 14-21 via staple K9; reading uncertain
- EC50 cAMP 0% FBS (human GIPR): 0.0022 nM
- EC50 cAMP 0% FBS (human GLP-1R): 0.012 nM

B3: Conjugate 146 (peptide)
peptide: Y[Aib]EGTFTSDYSIYLDKKAQ[Aib]AFVKWLIAQGPSSGAPPPS
modifications: linker 17-24 via staple K4; reading uncertain
- EC50 cAMP 0% FBS (human GIPR): 0.03 nM
- EC50 cAMP 0% FBS (human GLP-1R): 0.11 nM

B4: Conjugate 147 (peptide)
peptide: Y[Aib]EGTFTSDYSIYLDKKAA[Aib]EFVKWLLAGGPSSGAPPPS
modifications: linker 17-24 via staple K6; reading uncertain
- EC50 cAMP 0% FBS (human GIPR): 0.02 nM
- EC50 cAMP 0% FBS (human GLP-1R): 0.07 nM

B5: Conjugate 148 (peptide)
peptide: Y[Aib]EGTFTSDYSIYLDKKAA[Aib]EFVKWLLAGGPSSGAPPPS
modifications: linker 17-24 via staple K8; reading uncertain
- EC50 cAMP 0% FBS (human GIPR): 0.03 nM
- EC50 cAMP 0% FBS (human GLP-1R): 0.46 nM

B6: Conjugate 149 (peptide)
peptide: Y[Aib]EGTFTSDYSIYLDKKAA[Aib]EFVKWLLAGGPSSGAPPPS
modifications: linker 17-24 via staple K20; reading uncertain
- EC50 cAMP 0% FBS (human GIPR): 0.01 nM
- EC50 cAMP 0% FBS (human GLP-1R): 0.05 nM

B7: Conjugate 150 (peptide)
peptide: Y[Aib]EGTFTSDYSIYLDKKAA[Aib]EFVKWLLAGGPSSGAPPPS
modifications: linker 17-24 via staple K7; reading uncertain
- EC50 cAMP 0% FBS (human GIPR): 0.02 nM
- EC50 cAMP 0% FBS (human GLP-1R): 0.06 nM

B8: Conjugate 151 (peptide)
peptide: Y[Aib]EGTFTSDYSIYKDKQAA[Aib]KFVNWLLAGGPSSGAPPPS
modifications: linker 14-21 via staple K6; reading uncertain
- EC50 cAMP 0% FBS (human GIPR): 0.02 nM
- EC50 cAMP 0% FBS (human GLP-1R): 0.03 nM

B9: Conjugate 153 (peptide)
peptide: Y[Aib]EGTFTSDYSIYKDKQAA[Aib]KFVNWLLAGGPSSGAPPPS
modifications: linker 14-21 via staple K20; reading uncertain
- EC50 cAMP 0% FBS (human GIPR): 0.01 nM
- EC50 cAMP 0% FBS (human GLP-1R): 0.05 nM

B10: Conjugate 154 (peptide)
peptide: Y[Aib]EGTFTSDYSIYKDKQAA[Aib]KFVNWLLAGGPSSGAPPPS
modifications: linker 14-21 via staple K7; reading uncertain
- EC50 cAMP 0% FBS (human GIPR): 0.02 nM
- EC50 cAMP 0% FBS (human GLP-1R): 0.03 nM

B11: Conjugate 155 (peptide)
peptide: Y[Aib]EGTFTSDYSIYKDKQAA[Aib]KFKNWLKAGGPSSGAPPPS
modifications: linker 23-27 via staple K6; reading uncertain
- EC50 cAMP 0% FBS (human GIPR): 1.66 nM
- EC50 cAMP 0% FBS (human GLP-1R): 4.08 nM

B12: Conjugate 156 (peptide)
peptide: Y[Aib]EGTFTSDYSIYKDKQAA[Aib]KFKNWLKAGGPSSGAPPPS
modifications: linker 23-27 via staple K8; reading uncertain
- EC50 cAMP 0% FBS (human GIPR): 2.82 nM
- EC50 cAMP 0% FBS (human GLP-1R): 14.6 nM

B13: Conjugate 158 (peptide)
peptide: Y[Aib]EGTFTSDYSIYKDKQAA[Aib]KFKNWLKAGGPSSGAPPPS
modifications: linker 23-27 via staple K5; reading uncertain
- EC50 cAMP 0% FBS (human GIPR): 30.5 nM
- EC50 cAMP 0% FBS (human GLP-1R): 98.3 nM

B14: Conjugate 159 (peptide)
peptide: Y[Aib]EGTFTSDYSIYKDKQAA[Aib]KFKNWLKAGGPSSGAPPPS
modifications: linker 23-27 via staple K9; reading uncertain
- EC50 cAMP 0% FBS (human GIPR): 0.0312 nM
- EC50 cAMP 0% FBS (human GLP-1R): 1180 nM

B15: Conjugate 160 (peptide)
peptide: Y[Aib]EGTFTSDYSIYLDKKAQ[Aib]AFVKWLIAQGPSSGAPPPS
modifications: linker 17-24 via staple K6; reading uncertain
- EC50 cAMP 0% FBS (human GIPR): 7.3 nM
- EC50 cAMP 0% FBS (human GLP-1R): 0.03 nM

B16: Conjugate 161 (peptide)
peptide: Y[Aib]EGTFTSDYSIYLDKKAQ[Aib]AFVKWLIAQGPSSGAPPPS
modifications: linker 17-24 via staple K8; reading uncertain
- EC50 cAMP 0% FBS (human GIPR): 0.01 nM
- EC50 cAMP 0% FBS (human GLP-1R): 0.4 nM

B17: Conjugate 162 (peptide)
peptide: Y[Aib]EGTFTSDYSIYLDKKAQ[Aib]AFVKWLIAQGPSSGAPPPS
modifications: linker 17-24 via staple K20; reading uncertain
- EC50 cAMP 0% FBS (human GIPR): 0.02 nM
- EC50 cAMP 0% FBS (human GLP-1R): 0.05 nM

B18: Conjugate 163 (peptide)
peptide: Y[Aib]EGTFTSDYSIYLDKKAQ[Aib]AFVKWLIAQGPSSGAPPPS
modifications: linker 17-24 via staple K5; reading uncertain
- EC50 cAMP 0% FBS (human GIPR): 0.05 nM
- EC50 cAMP 0% FBS (human GLP-1R): 0.24 nM

B19: Conjugate 164 (peptide)
peptide: Y[Aib]EGTFTSDYSIYLDKKAQ[Aib]AFVKWLIAQGPSSGAPPPS
modifications: linker 17-24 via staple K9; reading uncertain
- EC50 cAMP 0% FBS (human GIPR): 68.3 nM
- EC50 cAMP 0% FBS (human GLP-1R): 0.14 nM

B20: Conjugate 251 (peptide)
peptide: SRAHQCS[Nle]ETRTCDINPAWYTG[hArg]GIRPVGRF-NH2
modifications: linker 6-13 via L1; reading uncertain
- NPFF2R EC50 0% FBS (human NPFF2R): 920 nM
- NPFF2R EC50 10% FBS (human NPFF2R): 1200 nM
- GPR10 EC50 0% FBS (GPR10 [1]): 5.9 nM
- GPR10 EC50 10% FBS (GPR10 [1]): 10 nM
- GPR10 EC50 (GPR10 [2]): 10 nM

B21: Conjugate 255 (peptide)
peptide: SRAHQCS[Nle]ETRTCDINPAWYTG[hArg]GIRPVGRF-NH2
modifications: linker 6-13 via L3; reading uncertain
- NPFF2R EC50 0% FBS (human NPFF2R): 150 nM
- NPFF2R EC50 10% FBS (human NPFF2R): 220 nM
- GPR10 EC50 0% FBS (GPR10 [1]): 8 nM
- GPR10 EC50 10% FBS (GPR10 [1]): 9.1 nM
- GPR10 EC50 (GPR10 [2]): 9.1 nM

B22: Conjugate 259 (peptide)
peptide: SRAHQCS[Nle]ETRTCDINPAWYTG[hArg]GIRPVGRF-NH2
modifications: linker 6-13 via L4; reading uncertain
- NPFF2R EC50 0% FBS (human NPFF2R): 470 nM
- NPFF2R EC50 10% FBS (human NPFF2R): > 10000 nM
- GPR10 EC50 0% FBS (GPR10 [1]): 12 nM
- GPR10 EC50 10% FBS (GPR10 [1]): 26 nM
- GPR10 EC50 (GPR10 [2]): 26 nM

B23: Conjugate 263 (peptide)
peptide: SRAHQCS[Nle]ETRTCDINPAWYTG[hArg]GIRPVGRF-NH2
modifications: linker 6-13 via L5; reading uncertain
- NPFF2R EC50 0% FBS (human NPFF2R): 520 nM
- NPFF2R EC50 10% FBS (human NPFF2R): > 10000 nM
- GPR10 EC50 0% FBS (GPR10 [1]): 7.8 nM
- GPR10 EC50 10% FBS (GPR10 [1]): 80 nM
- GPR10 EC50 (GPR10 [2]): 80 nM

B24: Conjugate 270 (peptide)
peptide: SRAHQCS[Nle]ETRTCDINPAWYTG[hArg]GIRPVGRF-NH2
modifications: linker 6-13 via L6; reading uncertain
- NPFF2R EC50 0% FBS (human NPFF2R): 270 nM
- NPFF2R EC50 10% FBS (human NPFF2R): 310 nM
- GPR10 EC50 0% FBS (GPR10 [1]): 12 nM
- GPR10 EC50 10% FBS (GPR10 [1]): 42 nM

B25: Conjugate 271 (peptide)
peptide: SRAHQCS[Nle]ETRTCDINPAWYTG[hArg]GIRPVGRF-NH2
modifications: linker 6-13 via L7; reading uncertain
- NPFF2R EC50 0% FBS (human NPFF2R): 130 nM
- NPFF2R EC50 10% FBS (human NPFF2R): 140 nM
- GPR10 EC50 0% FBS (GPR10 [1]): 9 nM
- GPR10 EC50 10% FBS (GPR10 [1]): 39 nM

B26: Conjugate 267 (peptide)
peptide: SRAHQCS[Nle]ETRTCDINPAWYTG[hArg]GIRPVGRF-NH2
modifications: linker 6-13 via L8; reading uncertain
- NPFF2R EC50 0% FBS (human NPFF2R): 560 nM
- NPFF2R EC50 10% FBS (human NPFF2R): ~10000 nM
- GPR10 EC50 0% FBS (GPR10 [1]): 24 nM
- GPR10 EC50 10% FBS (GPR10 [1]): 830 nM

B27: Conjugate 268 (peptide)
peptide: SRAHQCS[Nle]ETRTCDINPAWYTG[hArg]GIRPVGRF-NH2
modifications: linker 6-13 via L9; reading uncertain
- NPFF2R EC50 0% FBS (human NPFF2R): 9000 nM
- NPFF2R EC50 10% FBS (human NPFF2R): > 10000 nM
- GPR10 EC50 0% FBS (GPR10 [1]): 8.2 nM
- GPR10 EC50 10% FBS (GPR10 [1]): 120 nM

B28: Conjugate 269 (peptide)
peptide: SRAHQCS[Nle]ETRTCDINPAWYTG[hArg]GIRPVGRF-NH2
modifications: linker 6-13 via L12; reading uncertain
- NPFF2R EC50 0% FBS (human NPFF2R): 1600 nM
- NPFF2R EC50 10% FBS (human NPFF2R): ~8000 nM
- GPR10 EC50 0% FBS (GPR10 [1]): 10 nM
- GPR10 EC50 10% FBS (GPR10 [1]): 120 nM
